The nature of this series: self-splicing fitness, log relative to wild type (ln ratio); higher = more splicing; Tetrahymena group I intron in knt gene, E. coli kanamycin selection, DiMSum; sequences stand for … in CUCUCU…GGAGGGAAAAGUUAUCAGGCAUGCACCUGGUAGCUAGUCUUUAAACCAAUAGAUUGCAUCGGUUUAAAAGGCAAGACCGUCAAAUUGCGGGAAAGGGGUCAACAGCCGUUCAGUACCAAGUCUCAGGGGAAACUUUGAGAUGGCCUUGCAAAGGGUAUGGUAAUAAGCUGACGGACAUGGUCCUAACCACGCAGCCAAGUCCUAAGUCAACAGAUCUUCUGUUGAUAUGGAUGCAGUUCACAGACUAAAUGUCGGUCGGGGAAGAUGUAUUCUUCUCAUAAGAUAUAGUCGGACCUCUCCUUAAUGGGAGCUAGCGGAUGAAGUGAUGCAACACUGGAGCCGCUGGGAACUAAUUUGUAUGCGAAAGUAUAUUGAUUAGUUUUGGAGUACUCGUGGUCG
Put shortly:
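DiMSum derived fitness as the error-weighted combination of fold changes across replicates, kanamycin versus no kanamycin, normalised to wild type. E. coli BL21(DE3) held the library, which randomised all eight P1ex-region intron nucleotides within the knt kanamycin-resistance gene on pET-22b(+). Six replicate transformations grew overnight at 37°C or 30°C on LB agar with or without 25 μg/mL kanamycin, also containing 100 μg/mL carbenicillin, 50 μM IPTG and 0.2% rhamnose, and pooled colonies were amplicon-sequenced on an Illumina HiSeq 2500.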

± gives the uncertainty stated by the source.

As for UGACAGCAAUAUUACGAUCA, the “self-splicing fitness (ln)” value reads like this: (30 °C) -0.329 ± 0.068; (37 °C) 0.116 ± 0.089.
On to AGAAAGCAAUAUUACGUCAA, for which the “self-splicing fitness (ln)” value by setting is: (30 °C) -1.61 ± 0.11; (37 °C) -0.692 ± 0.1.
Take GAGUAGCAAUAUUACGGUUG: the “self-splicing fitness (ln)” value reads like this: (30 °C) -2.7 ± 0.2; (37 °C) -1.06 ± 0.2.
As to AGUCAGCAAUAUUACGUCUA, the “self-splicing fitness (ln)” value runs as follows: (30 °C) -0.83 ± 0.072; (37 °C) -0.792 ± 0.071.
Taken in the same sequence, the figures for UAUGAGCAAUAUUACGAGUA were -2.16 ± 0.19 and -0.862 ± 0.18.
With CGAGAGCAAUAUUACGACGG, the “self-splicing fitness (ln)” value is, setting by setting: (30 °C) -0.704 ± 0.16; (37 °C) -0.616 ± 0.18.
The corresponding values for AUACAGCAAUAUUACGCGCC are -1.06 ± 0.12 and -0.66 ± 0.16.
In the case of GCCGAGCAAUAUUACGGGCC, the “self-splicing fitness (ln)” value was -3.59 ± 0.32 (30 °C) and -1.99 ± 0.41 (37 °C).
Taken in the same sequence, the figures for GAGGAGCAAUAUUACGAUGA were -2.31 ± 0.24 and -1.42 ± 0.35.
Taken in the same sequence, the figures for CACGAGCAAUAUUACGUUAA were -3.25 ± 0.22 and -2.86 ± 0.22.
CGACAGCAAUAUUACGGUGG: the “self-splicing fitness (ln)” value is -1.73 ± 0.097 (30 °C) and -0.756 ± 0.1 (37 °C).
Taken in the same sequence, the figures for AUUCAGCAAUAUUACGUCCG were -0.866 ± 0.2 and -1.33 ± 0.24.
Taken in the same sequence, the figures for AUCAAGCAAUAUUACGGGUU were -3.44 ± 0.14 and -1.22 ± 0.11.
Consider GAACAGCAAUAUUACGUUCU, for which the “self-splicing fitness (ln)” value (30 °C) was -3.36 ± 0.13 and the “self-splicing fitness (ln)” value (37 °C) is -3.63 ± 0.2.
In the case of CGCUAGCAAUAUUACGGCUU, the “self-splicing fitness (ln)” value reads like this: (30 °C) -0.961 ± 0.081; (37 °C) -0.559 ± 0.1.
In the case of CACGAGCAAUAUUACGCUAG, the “self-splicing fitness (ln)” value (37 °C) was -2.4 ± 0.28.
For the sequence ACUAAGCAAUAUUACGACAC, the “self-splicing fitness (ln)” value is -0.549 ± 0.1 (30 °C) and -0.813 ± 0.13 (37 °C).
Turning to UCUCAGCAAUAUUACGAGGA, the “self-splicing fitness (ln)” value is -3.23 ± 0.26 (30 °C) and -1.77 ± 0.14 (37 °C).
Regarding GCGGAGCAAUAUUACGUCCA, the “self-splicing fitness (ln)” value is, setting by setting: (30 °C) -2.88 ± 0.33; (37 °C) -0.822 ± 0.32.
The corresponding values for ACAAAGCAAUAUUACGAGUG are -1.37 ± 0.068 and -0.772 ± 0.081.
The corresponding values for GUCUAGCAAUAUUACGGAAG are -0.159 ± 0.09 and 0.218 ± 0.12.
Taken in the same sequence, the figures for AAUGAGCAAUAUUACGGGUU were -2.36 ± 0.14 and -2.13 ± 0.2.
As to GGGUAGCAAUAUUACGCCGU, the “self-splicing fitness (ln)” value is -0.463 ± 0.2 (30 °C) and 0.576 ± 0.23 (37 °C).
The corresponding values for CGACAGCAAUAUUACGUCGC are -3.71 ± 0.25 and -3.74 ± 0.33.
Regarding GACUAGCAAUAUUACGUCCU, the “self-splicing fitness (ln)” value is -1.15 ± 0.2 (30 °C) and 0.446 ± 0.17 (37 °C).
Taken in the same sequence, the figures for ACCAAGCAAUAUUACGGAGG were -1.63 ± 0.12 and -1.8 ± 0.29.
The corresponding values for UUGGAGCAAUAUUACGCCCA are -2.38 ± 0.23 and -0.932 ± 0.4.
Turning to CGUCAGCAAUAUUACGGCAG, the “self-splicing fitness (ln)” value runs as follows: (30 °C) -0.866 ± 0.064; (37 °C) -0.287 ± 0.077.
CUUGAGCAAUAUUACGAAUC: the “self-splicing fitness (ln)” value (30 °C) is -4.03 ± 0.31 and the “self-splicing fitness (ln)” value (37 °C) is -1.86 ± 0.26.
For CAGGAGCAAUAUUACGGUGC, the “self-splicing fitness (ln)” value was -2.68 ± 0.26 (30 °C) and -1.76 ± 0.28 (37 °C).
As for UUGGAGCAAUAUUACGGUCC, where the note is “30 °C”, the “self-splicing fitness (ln)” value is -3.7 ± 0.34.
Consider ACAGAGCAAUAUUACGCCGA, for which the “self-splicing fitness (ln)” value runs as follows: (30 °C) -2.95 ± 0.48; (37 °C) -2.76 ± 0.38.
Taken in the same sequence, the figures for UGUCAGCAAUAUUACGCUUA were -0.0584 ± 0.077 and 0.408 ± 0.11.
Turning to CUAUAGCAAUAUUACGUUAG, the “self-splicing fitness (ln)” value is -2.54 ± 0.16 (30 °C) and -2.67 ± 0.19 (37 °C).
Regarding GAGGAGCAAUAUUACGAUGU, the “self-splicing fitness (ln)” value by setting is: (30 °C) -3.29 ± 0.33; (37 °C) -2.69 ± 0.32.
As to UUUCAGCAAUAUUACGAAUG, the “self-splicing fitness (ln)” value reads like this: (30 °C) -0.511 ± 0.086; (37 °C) -0.0774 ± 0.12.
Take AACUAGCAAUAUUACGCAGG: the “self-splicing fitness (ln)” value (30 °C) is -2.99 ± 0.15 and the “self-splicing fitness (ln)” value (37 °C) is -1.66 ± 0.14.
The corresponding values for GUGAAGCAAUAUUACGCCCG are -0.347 ± 0.39 and -0.026 ± 0.42.
Taken in the same sequence, the figures for CGGAAGCAAUAUUACGGCGC were -1.89 ± 0.37 and -0.448 ± 0.28.
The corresponding values for GUGAAGCAAUAUUACGAGAC are -2.62 ± 0.19 and -0.955 ± 0.12.
UAAUAGCAAUAUUACGAUAU: the “self-splicing fitness (ln)” value (30 °C) is -3.99 ± 0.47 and the “self-splicing fitness (ln)” value (37 °C) was -1.52 ± 0.25.
The corresponding values for AAGAAGCAAUAUUACGUGCA are -0.663 ± 0.08 and -0.0733 ± 0.1.
On to AAGCAGCAAUAUUACGUAGA, for which the “self-splicing fitness (ln)” value reads like this: (30 °C) -2.7 ± 0.097; (37 °C) -1.42 ± 0.082.
The corresponding values for UAAUAGCAAUAUUACGGAAG are -3.02 ± 0.21 and -0.76 ± 0.16.
For the sequence CGCCAGCAAUAUUACGAGAC, the “self-splicing fitness (ln)” value (30 °C) is -3.23 ± 0.33 and the “self-splicing fitness (ln)” value (37 °C) was -3.54 ± 0.46.
For CGUCAGCAAUAUUACGGAGG, the “self-splicing fitness (ln)” value is -1.93 ± 0.1 (30 °C) and -1.57 ± 0.16 (37 °C).
With UAACAGCAAUAUUACGAUCG, the “self-splicing fitness (ln)” value is, setting by setting: (30 °C) -0.667 ± 0.07; (37 °C) -0.00548 ± 0.098.
Taken in the same sequence, the figures for UCGGAGCAAUAUUACGACGC were -1.25 ± 0.25 and -0.73 ± 0.22.
As for GUCGAGCAAUAUUACGGUCC, the “self-splicing fitness (ln)” value runs as follows: (30 °C) -3.17 ± 0.22; (37 °C) -0.877 ± 0.17.
Turning to CUUUAGCAAUAUUACGUAUA, the “self-splicing fitness (ln)” value is, setting by setting: (30 °C) -3.57 ± 0.27; (37 °C) -2.38 ± 0.49.
Taken in the same sequence, the figures for UUUUAGCAAUAUUACGCUGG were -3.74 ± 0.39 and -2.88 ± 0.44.
The corresponding values for UUUUAGCAAUAUUACGGACC are -2.44 ± 0.4 and -0.175 ± 0.33.
For the sequence CGUUAGCAAUAUUACGGGGA, the “self-splicing fitness (ln)” value (37 °C) was -2.28 ± 0.3.
Consider CGUAAGCAAUAUUACGGCUG, for which the “self-splicing fitness (ln)” value is -0.231 ± 0.062 (30 °C) and -0.177 ± 0.095 (37 °C).
Taken in the same sequence, the figures for GAUCAGCAAUAUUACGUUGU were -3.48 ± 0.13 and -2.78 ± 0.16.
The corresponding values for CGCUAGCAAUAUUACGGUGG are -1.71 ± 0.12 and -2.3 ± 0.17.
Consider GCCCAGCAAUAUUACGCUUU, for which the “self-splicing fitness (ln)” value amounted to 0.177 ± 0.056 (30 °C) and 0.242 ± 0.074 (37 °C).
As for AAGUAGCAAUAUUACGAUGG, the “self-splicing fitness (ln)” value is, setting by setting: (30 °C) -3.03 ± 0.2; (37 °C) -2.75 ± 0.33.
Taken in the same sequence, the figures for UGCCAGCAAUAUUACGAUGC were -3.57 ± 0.17 and -2.35 ± 0.21.
Taken in the same sequence, the figures for UUCGAGCAAUAUUACGCGAG were -2.72 ± 0.37 and -1.94 ± 0.44.

Values taken from the supplement of paper PMC7877785.
